Values quoted from earlier work as cited in paper PMC6753945.

Target: CD28 (Homo sapiens) (UniProt P10747)

Kd: 200 nM
Substance: CD80 (from UniProt P33681)
